Fold less C4BP bound than by wt Rck and percent reduction in binding against wt C4BP data for 3 substances are collected here from paper PMC3213152.

Test [1] has as its target Rck G118D mutant (Salmonella enterica serovar Typhimurium) (UniProt Q04817). As to the kind of experiment: flow cytometry on cells; data not shown: FACS analysis with purified C4BP on the Rck G118D mutant against wt Rck.
Test [2] addresses Rck, outer membrane protein of Salmonella enterica serovar Typhimurium, expressed on E. coli BL21(DE3) from plasmid pRck (Salmonella enterica serovar Typhimurium strain SL1344) (UniProt Q04817). As to the kind of experiment: flow cytometry on cells; E. coli BL21(DE3) pRck with wt C4BP or the CCP7 or CCP8 deletion mutant (10 µg/ml); detected with monoclonal anti-C4BP MK104, specific for CCP1 of the α-chain; MFI of wt C4BP set to 100%.

Test [3] has the same target. Briefly: flow cytometry on cells; E. coli BL21(DE3) pRck in DPBS with purified C4BP (increasing amounts) or with wt C4BP or recombinant CCP deletion mutants at 10 µg/ml, 37°C; detected with sheep polyclonal anti-human C4BP; MFI of wt C4BP set to 100%.

“Human C4b-binding protein (C4BP) (from UniProt P04003 49-597; P20851 18-252) (complex)” came in with a fold less C4BP bound than by wt Rck in test [1] of 24 fold.

In the case of “Recombinant human C4BP mutant with CCP7 of the α-chain deleted (from UniProt P04003 49-597) (complex)”, the percent reduction in binding against wt C4BP is 84% in test [2] and 70% in test [3].

As for “Recombinant human C4BP mutant with CCP8 of the α-chain deleted (from UniProt P04003 49-597) (complex)”, the percent reduction in binding against wt C4BP in test [2] stood at 78%; in test [3] it was 60%.
